The nature of this data set: self-splicing fitness, log relative to wild type (ln ratio); higher = more splicing; Tetrahymena group I intron in knt gene, E. coli kanamycin selection, DiMSum; sequences stand for … in CUCUCU…GGAGGGAAAAGUUAUCAGGCAUGCACCUGGUAGCUAGUCUUUAAACCAAUAGAUUGCAUCGGUUUAAAAGGCAAGACCGUCAAAUUGCGGGAAAGGGGUCAACAGCCGUUCAGUACCAAGUCUCAGGGGAAACUUUGAGAUGGCCUUGCAAAGGGUAUGGUAAUAAGCUGACGGACAUGGUCCUAACCACGCAGCCAAGUCCUAAGUCAACAGAUCUUCUGUUGAUAUGGAUGCAGUUCACAGACUAAAUGUCGGUCGGGGAAGAUGUAUUCUUCUCAUAAGAUAUAGUCGGACCUCUCCUUAAUGGGAGCUAGCGGAUGAAGUGAUGCAACACUGGAGCCGCUGGGAACUAAUUUGUAUGCGAAAGUAUAUUGAUUAGUUUUGGAGUACUCGUGGUCG
The method in brief: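 Pooled colonies went to amplicon sequencing on an Illumina HiSeq 2500 after six replicate transformations. The plates were LB agar with 100 μg/mL carbenicillin, 50 μM IPTG and 0.2% rhamnose, with or without 25 μg/mL kanamycin, incubated overnight at 37°C or 30°C. The E. coli BL21(DE3) library had all eight P1ex-region intron nucleotides randomised, the intron placed in the knt kanamycin-resistance gene on pET-22b(+). DiMSum fitness is the error-weighted combination of replicate fold changes, kanamycin against none, normalised to wild type.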

± gives the uncertainty stated by the source.

Turning to GUGCAGCAAUAUUACGCUUG, the “self-splicing fitness (ln)” value is -3.09 ± 0.21 (30 °C) and -2.02 ± 0.27 (37 °C).
GUGCAGCAAUAUUACGGACA: the “self-splicing fitness (ln)” value reads like this: (30 °C) -1.58 ± 0.14; (37 °C) -0.853 ± 0.16.
On to GUGCAGCAAUAUUACGGAGA, for which the “self-splicing fitness (ln)” value (37 °C) was -1.86 ± 0.38.
GUGCAGCAAUAUUACGGAGC: the “self-splicing fitness (ln)” value reads like this: (30 °C) -1.85 ± 0.2; (37 °C) -1.97 ± 0.19.
GUGCAGCAAUAUUACGGCAA: the “self-splicing fitness (ln)” value is, setting by setting: (30 °C) 0.24 ± 0.12; (37 °C) 0.291 ± 0.15.
Consider GUGCAGCAAUAUUACGGGGA, for which the “self-splicing fitness (ln)” value was -4.16 ± 0.3 (30 °C) and -2.8 ± 0.23 (37 °C).
As for GUGCAGCAAUAUUACGGUAU, the “self-splicing fitness (ln)” value was -2.16 ± 0.12 (30 °C) and -1.53 ± 0.15 (37 °C).
As to GUGCAGCAAUAUUACGGUCU, the “self-splicing fitness (ln)” value reads like this: (30 °C) -0.887 ± 0.081; (37 °C) 0.217 ± 0.093.
In the same order, the values of GUGCAGCAAUAUUACGGUUC are -0.353 ± 0.075 and -0.684 ± 0.11.
In the same order, the values of GUGCAGCAAUAUUACGUAGC are -1.44 ± 0.17 and -0.976 ± 0.16.
Taken in the same sequence, the figures for GUGCAGCAAUAUUACGUAGU were -1.37 ± 0.083 and -0.784 ± 0.12.
Consider GUGCAGCAAUAUUACGUCUC, for which the “self-splicing fitness (ln)” value runs as follows: (30 °C) -0.469 ± 0.084; (37 °C) 0.48 ± 0.11.
On to GUGCAGCAAUAUUACGUGAC, for which the “self-splicing fitness (ln)” value was -1.86 ± 0.14 (30 °C) and -1.33 ± 0.14 (37 °C).
Take GUGCAGCAAUAUUACGUGCU: the “self-splicing fitness (ln)” value reads like this: (30 °C) -3.49 ± 0.32; (37 °C) -2.35 ± 0.35.
For GUGCAGCAAUAUUACGUGGC, the “self-splicing fitness (ln)” value was -3.55 ± 0.27 (30 °C) and -1.8 ± 0.15 (37 °C).
In the case of GUGCAGCAAUAUUACGUUGU, the “self-splicing fitness (ln)” value (30 °C) was -3.71 ± 0.17 and the “self-splicing fitness (ln)” value (37 °C) was -2.56 ± 0.17.
As for GUGCAGCAAUAUUACGUUUA, the “self-splicing fitness (ln)” value is, setting by setting: (30 °C) -0.737 ± 0.11; (37 °C) -0.75 ± 0.12.
Taken in the same sequence, the figures for GUGGAGCAAUAUUACGAACA were -2.19 ± 0.46 and -0.866 ± 0.45.
In the same order, the values of GUGGAGCAAUAUUACGAACG are -2.43 ± 0.43 and -1.53 ± 0.41.
With GUGGAGCAAUAUUACGAAUC, the “self-splicing fitness (ln)” value is, setting by setting: (30 °C) -3.4 ± 0.24; (37 °C) -1.43 ± 0.26.
Consider GUGGAGCAAUAUUACGACUU, for which the “self-splicing fitness (ln)” value is, setting by setting: (30 °C) -2.79 ± 0.34; (37 °C) -0.283 ± 0.24.
In the case of GUGGAGCAAUAUUACGAGCA, the “self-splicing fitness (ln)” value by setting is: (30 °C) -2.49 ± 0.34; (37 °C) -1.93 ± 0.39.
Take GUGGAGCAAUAUUACGAGUG: the “self-splicing fitness (ln)” value (37 °C) is -1.74 ± 0.36.
As for GUGGAGCAAUAUUACGAUCC, the “self-splicing fitness (ln)” value runs as follows: (30 °C) -2.49 ± 0.2; (37 °C) -1.13 ± 0.28.
Taken in the same sequence, the figures for GUGGAGCAAUAUUACGCCCU were -1.79 ± 0.32 and -1.87 ± 0.26.
In the case of GUGGAGCAAUAUUACGCCUU, the “self-splicing fitness (ln)” value is -2.3 ± 0.31 (30 °C) and -1.09 ± 0.22 (37 °C).
Regarding GUGGAGCAAUAUUACGCGAA, the “self-splicing fitness (ln)” value by setting is: (30 °C) -3 ± 0.39; (37 °C) -1.09 ± 0.27.
Taken in the same sequence, the figures for GUGGAGCAAUAUUACGCUAA were -2.72 ± 0.25 and -1.6 ± 0.19.
Consider GUGGAGCAAUAUUACGCUAG, for which the “self-splicing fitness (ln)” value is, setting by setting: (30 °C) -3.24 ± 0.19; (37 °C) -2.36 ± 0.2.
As for GUGGAGCAAUAUUACGCUCA, the “self-splicing fitness (ln)” value runs as follows: (30 °C) -1.19 ± 0.26; (37 °C) -1.1 ± 0.26.
As to GUGGAGCAAUAUUACGGAGC, the “self-splicing fitness (ln)” value (30 °C) was -2.43 ± 0.2 and the “self-splicing fitness (ln)” value (37 °C) was -0.177 ± 0.25.
Consider GUGGAGCAAUAUUACGGCAC, for which the “self-splicing fitness (ln)” value (30 °C) is -1.39 ± 0.19 and the “self-splicing fitness (ln)” value (37 °C) is -0.386 ± 0.31.
Turning to GUGGAGCAAUAUUACGGUGA, the “self-splicing fitness (ln)” value (37 °C) is -1.81 ± 0.49.
Consider GUGGAGCAAUAUUACGUAAG, for which the “self-splicing fitness (ln)” value is, setting by setting: (30 °C) -3.04 ± 0.26; (37 °C) -1.21 ± 0.47.
Consider GUGGAGCAAUAUUACGUAGC, for which, for the setting “30 °C”, the “self-splicing fitness (ln)” value amounted to 0.305 ± 0.33.
For the sequence GUGGAGCAAUAUUACGUAGU, the “self-splicing fitness (ln)” value reads like this: (30 °C) -2.93 ± 0.24; (37 °C) -0.993 ± 0.27.
As for GUGGAGCAAUAUUACGUCAC, the “self-splicing fitness (ln)” value was -3.5 ± 0.39 (30 °C) and -1.99 ± 0.26 (37 °C).
Turning to GUGGAGCAAUAUUACGUCCG, the “self-splicing fitness (ln)” value was -3.12 ± 0.33 (30 °C) and -1.01 ± 0.33 (37 °C).
Take GUGGAGCAAUAUUACGUCGG: the “self-splicing fitness (ln)” value is, setting by setting: (30 °C) -3.08 ± 0.22; (37 °C) -2.35 ± 0.2.

Values taken from the supplement of paper PMC7877785.
